Reference: US20130123201A1, “MODULATION OF CYTOKINE-INDUCED CHRONIC INFLAMMATORY RESPONSES” (UNIVERSITY OF MANITOBA, priority 2010, published 2013)

Target: TNF-receptor-1 (TNF-R1) (human) (UniProt P19438)
Test: cell-based or functional assay

Sequence of TNF-receptor-1 (TNF-R1) (human) (P19438 30-455): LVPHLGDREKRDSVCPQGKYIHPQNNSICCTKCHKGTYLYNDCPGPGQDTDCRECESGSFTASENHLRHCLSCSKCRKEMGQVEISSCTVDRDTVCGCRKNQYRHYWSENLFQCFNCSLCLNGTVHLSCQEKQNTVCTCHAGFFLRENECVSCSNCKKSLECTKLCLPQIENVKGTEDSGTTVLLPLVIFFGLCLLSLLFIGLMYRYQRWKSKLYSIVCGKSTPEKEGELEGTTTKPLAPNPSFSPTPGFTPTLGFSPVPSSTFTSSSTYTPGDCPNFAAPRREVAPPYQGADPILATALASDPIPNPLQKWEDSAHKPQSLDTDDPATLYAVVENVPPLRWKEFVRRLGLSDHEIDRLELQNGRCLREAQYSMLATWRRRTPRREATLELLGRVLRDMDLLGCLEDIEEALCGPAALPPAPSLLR

Recombinant human cytokine IL-32γ (from UniProt P24001 31-234) (ligand)
Relative fold change in phosphorylation of the TNF-R1 S274 array peptide (kinome profiling, THP-1 cells, 20 ng/mL IL-32, 15 min): 4.7 fold
